Here are results for 2 molecules from article PMC3119066 (DNA repair, 2011).

Like-named read-outs stand apart in the source and are kept apart here.

Assay [1] has as its target T1, Rad51 (S. cerevisiae, UniProt P25454 1-400).
T1 sequence (looked up): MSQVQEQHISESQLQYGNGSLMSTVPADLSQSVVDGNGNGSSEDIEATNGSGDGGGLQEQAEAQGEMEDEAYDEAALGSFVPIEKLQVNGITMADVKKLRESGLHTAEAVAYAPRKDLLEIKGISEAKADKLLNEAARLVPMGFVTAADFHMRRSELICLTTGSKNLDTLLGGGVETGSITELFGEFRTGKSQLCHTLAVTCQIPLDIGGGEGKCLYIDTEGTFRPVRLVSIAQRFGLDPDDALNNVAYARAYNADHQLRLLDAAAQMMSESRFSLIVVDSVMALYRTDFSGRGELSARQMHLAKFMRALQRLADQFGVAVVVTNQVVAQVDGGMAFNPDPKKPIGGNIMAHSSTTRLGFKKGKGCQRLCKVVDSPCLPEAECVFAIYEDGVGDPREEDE
Description: pull-down.

For assay [2], the target named is T1, Rad51. Description: pull-down. This is another data set of the same source.

B1: Mei5-Sae3 complex (complex, S. cerevisiae)
chain 1: MHNQEEWLDKDKTLVNEEENTCINHSYTKKDTNNYRVGKSGIKDLKKPTNQKEIAIKNRELTKQLTLLRQENNHLQQACKILSENKIIENRKSIEKWRTICEMELSFILNSTLIKINRMGGYKDFLEKEMEAKKRRLEYQIDNGMEDQICEIKESDDFRQLSEVEKQEWESQMNEQLKELEKKKIAELEKLNKVLHDSEGKDFGMAELCTRLKLDYSLIFPQ
chain 2: MNYLETQLNKKQKQIQEYESMNGNLIKMFEQLSKEKKNDETPKKISSTYIKELKEYNELRDAGLRLAQIIADEKQCKIKDVFEEIGYSMKD
As to B1, in assay [1], the binding result is “binds”.

B2: MBP-Mei5-N (domain or fragment, S. cerevisiae, UniProt P32489 1-121, looked up)
chain: MHNQEEWLDKDKTLVNEEENTCINHSYTKKDTNNYRVGKSGIKDLKKPTNQKEIAIKNRELTKQLTLLRQENNHLQQACKILSENKIIENRKSIEKWRTICEMELSFILNSTLIKINRMGG
As for B2, the binding result in assay [2] is “binds”.
